{
  "source": "paper PMC4522657",
  "about": "“Identification of a DYRK1A Inhibitor that Induces Degradation of the Target Kinase using Co-chaperone CDC37 fused with Luciferase nanoKAZ” (Scientific Reports, 2015)",
  "assay_in_all_cases": "ELISA; Lysates (HENG buffer: 50 mM HEPES-KOH pH 7.9, 150 mM NaCl, 20 mM Na2MoO4, 2 mM EDTA, 5% glycerol, 0.5% Triton X-100) of 293T cells stably expressing CDC37-nanoKAZ, nanoKAZ-HSP90β or nanoKAZ and transiently transfected with 3xFLAG-tagged kinases; 3xFLAG-kinase captured on 96-well plates coated with anti-FLAG M2, 4 °C for 3 h, washed; bound nanoKAZ fusion read by luminescence (Imax) with bis-coelenterazine, as …",
  "conditions_in_all_cases": "partners not purified",
  "key": {"[1]": {"biological_target": "T1, 3xFLAG-DYRK1A (Y319F/Y321F) (UniProt Q13627-1 1-763, Y319F | Y321F)", "T1 construct": "Expressed upstream of F2A-EGFP as m2; also called Y319F/Y321F mutant; DYRK1A mutant"}, "[2]": {"biological_target": "T2, 3xFLAG-tagged kinase-dead mutant of DYRK1A (K188R) (UniProt Q13627-1 1-763, K188R)", "T2 construct": "DYRK1A with Lys188 substituted to Arg; Expressed upstream of F2A-EGFP as m2; also called K188R mutant"}, "3xFLAG-DYRK1A (Y159F)": {"biological_target": "T3, 3xFLAG-DYRK1A (Y159F) (UniProt Q13627-1 1-763, Y159F)", "T3 construct": "DYRK1A with the autophosphorylation site Tyr159 substituted to Phe; Expressed upstream of F2A-EGFP as m2"}, "[3]": {"biological_target": "T4, 3xFLAG-DYRK1A (Y145F/Y147F) (UniProt Q13627-1 1-763, Y145F | Y147F)", "T4 construct": "DYRK1A with the autophosphorylation sites Tyr145 and Tyr147 substituted to Phe; Expressed upstream of F2A-EGFP as m2"}, "3xFLAG-tagged DYRK4": {"biological_target": "T5, 3xFLAG-tagged DYRK4 (UniProt Q9NR20 1-520)", "T5 construct": "DYRK4; residues of F2A may remain at the C-terminus (surmise); also called 3xFLAG-DYRK4; source: 293T cells stably expressing CDC37-nanoKAZ, transiently transfected (pcDNA5/FRT/TO), in lysate", "T5 sequence (looked up)": "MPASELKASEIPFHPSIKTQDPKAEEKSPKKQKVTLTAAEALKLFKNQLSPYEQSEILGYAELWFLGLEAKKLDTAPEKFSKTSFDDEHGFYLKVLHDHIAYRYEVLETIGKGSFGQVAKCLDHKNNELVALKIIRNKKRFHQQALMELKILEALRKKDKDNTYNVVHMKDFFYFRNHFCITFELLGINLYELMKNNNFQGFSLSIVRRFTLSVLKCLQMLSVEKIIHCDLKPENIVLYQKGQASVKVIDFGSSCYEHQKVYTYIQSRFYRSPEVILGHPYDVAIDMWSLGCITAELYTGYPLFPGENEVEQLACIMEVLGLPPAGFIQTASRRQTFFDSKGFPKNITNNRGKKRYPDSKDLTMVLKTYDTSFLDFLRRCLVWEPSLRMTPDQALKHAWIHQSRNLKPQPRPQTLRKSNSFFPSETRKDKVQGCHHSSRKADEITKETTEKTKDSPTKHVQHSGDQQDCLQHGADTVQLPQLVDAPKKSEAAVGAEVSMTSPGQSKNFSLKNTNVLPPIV"}, "3xFLAG-DYRK1A (Y111F)": {"biological_target": "T6, 3xFLAG-DYRK1A (Y111F) (UniProt Q13627-1 1-763, Y111F)", "T6 construct": "DYRK1A with the autophosphorylation site Tyr111 substituted to Phe; Expressed upstream of F2A-EGFP as m2"}},
  "data": [
    {"binder": "nanoKAZ-HSP90β (natural protein, HSP90β (HSP90AB1 gene product); Codon-optimized nanoKAZ (GenBank AB823628) fused to the amino-terminus of HSP90β; also called HSP90β fused with nanoKAZ; nanoKAZ-HSP90AB1; source: 293T cell line stably expressing nanoKAZ-HSP90β (pCAGIPuro vector), in lysate; not shown: nanoKAZ (luciferase reporter), N-terminal, kept) not shown", "values": [
      {"measurement": "fold stronger interaction than intact DYRK1A", "setting": "[1]", "result": 3.8, "unit": "fold"},
      {"measurement": "fold stronger interaction than intact DYRK1A", "setting": "[2]", "result": 10, "unit": "fold"}
    ]},
    {"binder": "CDC37-nanoKAZ (natural protein, UniProt Q16543 1-378, looked up, Kinase-specific co-chaperone CDC37; also called CDC37 fused with nanoKAZ; source: 293T cells stably expressing CDC37-nanoKAZ (pCAGIPuro vector), in lysate; not shown: nanoKAZ (luciferase reporter), C-terminal, kept) MVDYSVWDHIEVSDDEDETHPNIDTASLFRWRHQARVERMEQFQKEKEELDRGCRECKRKVAECQRKLKELEVAEGGKAELERLQAEAQQLRKEERSWEQKLEEMRKKEKSMPWNVDTLSKDGFSKSMVNTKPEKTEEDSEEVREQKHKTFVEKYEKQIKHFGMLRRWDDSQKYLSDNVHLVCEETANYLVIWCIDLEVEEKCALMEQVAHQTIVMQFILELAKSLKVDPRACFRQFFTKIKTADRQYMEGFNDELEAFKERVRGRAKLRIEKAMKEYEEEERKKRLGPGGLDPVEVYESLPEELQKCFDVKDVQMLQDAISKMDPTDAKYHMQRCIDSGLWVPNSKASEAKEGEEAGPGDPLLEAVPKTGDEKDVSV", "values": [
      {"measurement": "fold stronger interaction than intact DYRK1A", "setting": "[1]", "result": 8, "unit": "fold"},
      {"measurement": "fold stronger interaction than intact DYRK1A", "setting": "3xFLAG-DYRK1A (Y159F)", "result": 8.4, "unit": "fold"},
      {"measurement": "fold stronger interaction than intact DYRK1A", "setting": "[3]", "result": 2.4, "unit": "fold"},
      {"measurement": "fold stronger interaction than 3xFLAG-DYRK1A", "setting": "3xFLAG-tagged DYRK4", "result": 102, "unit": "fold"},
      {"measurement": "fold stronger interaction than intact DYRK1A", "setting": "[2]", "result": 17, "unit": "fold"},
      {"measurement": "fold stronger interaction than intact DYRK1A", "setting": "3xFLAG-DYRK1A (Y111F)", "result": 1.4, "unit": "fold"}
    ]}
  ]
}
